% sequence coverage, total spectra and unique spectra data for one molecule are collected here from patent publication US20080014191A1.

This test deals with wild-type cystic fibrosis transmembrane conductance regulator (CFTR) (Homo sapiens (Human)) (UniProt P13569). The test is described as follows: CFTR co-IP, MudPIT MS; BHK wt.
wild-type cystic fibrosis transmembrane conductance regulator (CFTR) (Homo sapiens (Human)), sequence (P13569 whole entry): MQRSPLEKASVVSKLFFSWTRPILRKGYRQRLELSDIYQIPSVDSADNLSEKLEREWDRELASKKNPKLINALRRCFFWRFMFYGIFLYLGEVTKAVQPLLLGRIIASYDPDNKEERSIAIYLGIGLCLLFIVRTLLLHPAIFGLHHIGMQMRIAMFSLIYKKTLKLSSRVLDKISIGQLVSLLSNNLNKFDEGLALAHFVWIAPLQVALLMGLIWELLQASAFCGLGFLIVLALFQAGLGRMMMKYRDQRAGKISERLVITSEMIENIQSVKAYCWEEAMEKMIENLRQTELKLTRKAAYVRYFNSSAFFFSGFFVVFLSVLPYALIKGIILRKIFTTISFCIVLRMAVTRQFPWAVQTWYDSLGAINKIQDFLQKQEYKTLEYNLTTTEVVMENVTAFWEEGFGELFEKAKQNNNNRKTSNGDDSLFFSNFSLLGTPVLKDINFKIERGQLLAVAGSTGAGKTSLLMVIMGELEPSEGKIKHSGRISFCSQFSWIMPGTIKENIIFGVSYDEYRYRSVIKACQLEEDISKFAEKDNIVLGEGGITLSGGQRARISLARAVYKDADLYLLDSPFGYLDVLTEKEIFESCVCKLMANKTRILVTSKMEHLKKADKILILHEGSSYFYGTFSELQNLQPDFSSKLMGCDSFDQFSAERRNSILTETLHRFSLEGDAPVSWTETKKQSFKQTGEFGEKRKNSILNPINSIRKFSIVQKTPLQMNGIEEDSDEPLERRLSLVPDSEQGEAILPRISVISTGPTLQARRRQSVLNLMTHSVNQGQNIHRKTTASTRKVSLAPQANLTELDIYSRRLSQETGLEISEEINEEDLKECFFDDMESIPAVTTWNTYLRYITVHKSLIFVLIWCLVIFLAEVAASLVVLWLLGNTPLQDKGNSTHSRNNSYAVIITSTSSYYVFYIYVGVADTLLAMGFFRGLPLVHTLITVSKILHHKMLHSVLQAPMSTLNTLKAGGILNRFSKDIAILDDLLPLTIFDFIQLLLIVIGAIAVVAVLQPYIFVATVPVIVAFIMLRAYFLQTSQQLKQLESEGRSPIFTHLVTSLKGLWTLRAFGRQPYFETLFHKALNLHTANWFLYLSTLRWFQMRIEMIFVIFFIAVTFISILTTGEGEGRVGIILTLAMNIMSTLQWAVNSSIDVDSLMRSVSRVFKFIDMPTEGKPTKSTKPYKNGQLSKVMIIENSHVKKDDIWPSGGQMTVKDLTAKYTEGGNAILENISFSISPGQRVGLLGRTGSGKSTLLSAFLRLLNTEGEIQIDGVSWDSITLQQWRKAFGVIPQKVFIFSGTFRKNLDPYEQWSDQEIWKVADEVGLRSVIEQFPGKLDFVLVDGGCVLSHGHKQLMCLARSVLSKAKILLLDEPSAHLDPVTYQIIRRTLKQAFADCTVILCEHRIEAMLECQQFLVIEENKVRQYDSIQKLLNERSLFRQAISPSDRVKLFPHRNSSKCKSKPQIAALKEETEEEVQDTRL

B1: Calnexin (protein, UniProt P27824 21-592, looked up)
chain: HDGHDDDVIDIEDDLDDVIEEVEDSKPDTTAPPSSPKVTYKAPVPTGEVYFADSFDRGTLSGWILSKAKKDDTDDEIAKYDGKWEVEEMKESKLPGDKGLVLMSRAKHHAISAKLNKPFLFDTKPLIVQYEVNFQNGIECGGAYVKLLSKTPELNLDQFHDKTPYTIMFGPDKCGEDYKLHFIFRHKNPKTGIYEEKHAKRPDADLKTYFTDKKTHLYTLILNPDNSFEILVDQSVVNSGNLLNDMTPPVNPSREIEDPEDRKPEDWDERPKIPDPEAVKPDDWDEDAPAKIPDEEATKPEGWLDDEPEYVPDPDAEKPEDWDEDMDGEWEAPQIANPRCESAPGCGVWQRPVIDNPNYKGKWKPPMIDNPSYQGIWKPRKIPNPDFFEDLEPFRMTPFSAIGLELWSMTSDIFFDNFIICADRRIVDDWANDGWGLKKAADGAAEPGVVGQMIEAAEERPWLWVVYILTVALPVFLVILFCCSGKKQTSGMEYKKTDAPQPDVKEEEEEKEEEKDKGDEEEEGEEKLEEKQKSDAEEDGGTVSQEEEDRKPKAEEDEILNRSPRNRKPRRE
With B1, the % sequence coverage came out at 10%, the total spectra worked out at 7 spectra and the unique spectra was found to be 4 spectra.
